Assay [1] has as its target T1, DnaK, untreated control (E. coli, UniProt P0A6Y8 1-638). The assay can be described thus: cell-based or functional assay.
Assay [2] addresses T2, DnaK, glutathionylated at Cys-15 (E. coli, UniProt P0A6Y8 1-638, S-glutathionylated cysteine at Cys-15). The assay can be described thus: cell-based or functional assay.
The target in assay [3] is T1, DnaK, untreated control. Put plainly: pull-down; 2 μM His6-DnaJ, 5 μM His6-GrpE or 2 μM His6-Smt3-σ^32 with 20 μM DnaK, Buffer B, 1 mM ADP, 8 °C, 60 min; Ni-Sepharose HP; wash 300 mM KCl, 40 mM imidazole; elution 300 mM imidazole; SDS-PAGE, Coomassie. The conditions noted are these: both partners purified.
The target in assay [4] is T3, DnaK, deglutathionylated (E. coli, UniProt P0A6Y8 1-638).
T3 construct: DnaK (bacterial Hsp70), E. coli, gene dnaK cloned from genomic DNA of E. coli C41 cells; primers from the start to the stop codon; also called deglutathionylated DnaK; not shown: His6, N-terminal, cleaved; Smt3, N-terminal, cleaved
Described as above. The conditions noted are these: both partners purified.

In assay [5] the target is T2, DnaK, glutathionylated at Cys-15. The description is as above. The settings on record: both partners purified.
For assay [6], the target named is T1, DnaK, untreated control. Put plainly: fluorescence polarisation; steady state; 20 nM FITC-…, increasing concentrations of DnaK, Buffer B, room temperature; ATP state. The conditions noted are these: both partners purified. Background: In fluorescence polarisation assays a small probe gives low polarisation when free and higher when bound to something large.
Assay [7] addresses T1, DnaK, untreated control. Put plainly: fluorescence polarisation; steady state; 20 nM FITC-…, increasing concentrations of DnaK, 60 min incubation, Buffer B (50 mM Tris-HCl pH 7.5, 100 mM KCl, 5 mM MgCl2), room temperature; apo or ADP state; single site binding model. The settings on record: both partners purified.
The target in assay [8] is T3, DnaK, deglutathionylated. Described as above. The settings on record: both partners purified.
The target of assay [9] is T2, DnaK, glutathionylated at Cys-15. Described as above. The conditions noted are these: both partners purified.

No end group written: not given here. *: point of attachment. FITC = O=C1OC2(c3ccc(O)cc3Oc3cc(O)ccc32)c2ccc(NC(=S)*)cc21

T3 sequence (P0A6Y8 whole entry): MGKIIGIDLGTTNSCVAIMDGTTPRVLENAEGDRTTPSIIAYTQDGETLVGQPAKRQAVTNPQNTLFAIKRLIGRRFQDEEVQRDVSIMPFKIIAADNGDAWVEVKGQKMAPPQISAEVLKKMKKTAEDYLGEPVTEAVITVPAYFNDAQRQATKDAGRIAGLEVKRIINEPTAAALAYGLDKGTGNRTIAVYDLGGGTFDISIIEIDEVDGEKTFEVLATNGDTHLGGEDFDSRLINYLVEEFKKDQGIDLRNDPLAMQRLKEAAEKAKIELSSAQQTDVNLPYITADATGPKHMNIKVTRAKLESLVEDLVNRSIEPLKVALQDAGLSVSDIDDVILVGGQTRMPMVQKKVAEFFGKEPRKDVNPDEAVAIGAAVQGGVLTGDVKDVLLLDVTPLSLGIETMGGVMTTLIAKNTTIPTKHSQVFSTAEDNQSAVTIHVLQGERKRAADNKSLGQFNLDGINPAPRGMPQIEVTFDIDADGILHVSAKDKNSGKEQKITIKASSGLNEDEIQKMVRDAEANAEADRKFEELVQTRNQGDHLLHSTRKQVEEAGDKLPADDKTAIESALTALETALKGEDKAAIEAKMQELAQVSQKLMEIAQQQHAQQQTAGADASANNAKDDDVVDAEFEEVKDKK
T1 sequence (P0A6Y8 whole entry): as above
T2 sequence (P0A6Y8 whole entry): as above

B1: His6-DnaJ (natural protein, E. coli, UniProt P08622 1-376, looked up)
chain: MAKQDYYEILGVSKTAEEREIRKAYKRLAMKYHPDRNQGDKEAEAKFKEIKEAYEVLTDSQKRAAYDQYGHAAFEQGGMGGGGFGGGADFSDIFGDVFGDIFGGGRGRQRAARGADLRYNMELTLEEAVRGVTKEIRIPTLEECDVCHGSGAKPGTQPQTCPTCHGSGQVQMRQGFFAVQQTCPHCQGRGTLIKDPCNKCHGHGRVERSKTLSVKIPAGVDTGDRIRLAGEGEAGEHGAPAGDLYVQVQVKQHPIFEREGNNLYCEVPINFAMAALGGEIEVPTLDGRVKLKVPGETQTGKLFRMRGKGVKSVRGGAQGDLLCRVVVETPVGLNERQKQLLQELQESFGGPTGEHNSPRSKSFFDGVKKFFDDLTR
On to B1, for which the “acceleration of ATP turnover of DnaK by DnaJ, malachite green ATPase assay, DnaJ to DnaK ratio 2:1” value with DnaK, untreated control [1] turned out to be 6 fold; in assay [2], 2 fold.

B2: His6-Smt3-σ^32 (natural protein, E. coli, UniProt P0AGB3 1-284, looked up)
chain: MTDKMQSLALAPVGNLDSYIRAANAWPMLSADEERALAEKLHYHGDLEAAKTLILSHLRFVVHIARNYAGYGLPQADLIQEGNIGLMKAVRRFNPEVGVRLVSFAVHWIKAEIHEYVLRNWRIVKVATTKAQRKLFFNLRKTKQRLGWFNQDEVEMVARELGVTSKDVREMESRMAAQDMTFDLSSDDDSDSQPMAPVLYLQDKSSNFADGIEDDNWEEQAANRLTDAMQGLDERSQDIIRARWLDEDNKSTLQELADRYGVSAERVRQLEKNAMKKLRAAIEA
notes: σ^32 subunit of RNA polymerase (heat shock sigma factor), E. coli, gene rpoH cloned from genomic DNA of E. coli C41 cells; primers from the start to the stop codon; The His6-Smt3 tag (pET28a-SMT3) was not cleaved from σ^32; order of the tags from the printed label; also called heat shock transcription factor σ^32; not shown: His6, N-terminal, kept; Smt3, N-terminal, kept
Regarding B2, the binding result with DnaK, untreated control [3] is given as “binds”; with DnaK, deglutathionylated [4] it was “binds”; in assay [5], “binds”.

B3: His6-GrpE (natural protein, E. coli, UniProt P09372 1-197, looked up)
chain: MSSKEQKTPEGQAPEEIIMDQHEEIEAVEPEASAEQVDPRDEKVANLEAQLAEAQTRERDGILRVKAEMENLRRRTELDIEKAHKFALEKFINELLPVIDSLDRALEVADKANPDMSAMVEGIELTLKSMLDVVRKFGVEVIAETNVPLDPNVHQAIAMVESDDVAPGNVLGIMQKGYTLNGRTIRAAMVTVAKAKA
notes: GrpE (nucleotide exchange factor of DnaK), E. coli, gene grpE cloned from genomic DNA of E. coli C41 cells; primers from the start to the stop codon; Uncleavable His6 tag from the mini pRSETa plasmid; not shown: His6, N-terminal, kept
B3: the binding result with DnaK, untreated control [3] is recorded as “binds”; with DnaK, deglutathionylated [4] it was “binds”; in [5], “binds”.

The term Kd denotes a measure of binding affinity in units of concentration. Low readings indicate a tighter complex, high ones a looser complex. For {FITC}-ALLLSAPRR (also called FAR) [FITC-ALLLSAPRR peptide], the dissociation constant Kd with DnaK, untreated control [6] was at least 10000 nM; in the assay with DnaK, untreated control [7] it was 200 to 500 nM; in the assay with DnaK, deglutathionylated [8], 200 to 500 nM; in assay [9], 4000 to 6000 nM.

The record behind these values is paper PMC4807281, “Glutathionylation of the Bacterial Hsp70 Chaperone DnaK Provides a Link between Oxidative Stress and the Heat Shock Response*” (The Journal of Biological Chemistry, 2016).
